Data published in patent US20230002480A1.

Tests used:
Experiment in all cases: cell-based or functional assay
[1] = molecular target: HIV-1 Env of pseudovirus 1006_11_C3_1601 (clade B (T/F)) (HIV-1)
[2] = molecular target: HIV-1 Env of pseudovirus 6535.3 (clade B) (HIV-1)
[3] = molecular target: HIV-1 Env of pseudovirus 7030102001E5(Rev-) (clade C (T/F)) (HIV-1)
[4] = molecular target: HIV-1 Env of pseudovirus CAP45.2.00.G3 (clade C) (HIV-1)
[5] = molecular target: HIV-1 Env of pseudovirus CNE17 (clade BC) (HIV-1)
[6] = molecular target: HIV-1 Env of pseudovirus Ce0682_E4 (clade C (T/F)) (HIV-1)
[7] = molecular target: HIV-1 Env of pseudovirus Ce1086_B2 (clade C (T/F)) (HIV-1)
[8] = molecular target: HIV-1 Env of pseudovirus Ce1172_H1 (clade C (T/F)) (HIV-1)
[9] = molecular target: HIV-1 Env of pseudovirus Ce1176_A3 (clade C (T/F)) (HIV-1)
[10] = molecular target: HIV-1 Env of pseudovirus Ce703010054_2A2 (clade C (T/F)) (HIV-1)
[11] = molecular target: HIV-1 Env of pseudovirus Ce704809221_1B3 (clade C (T/F)) (HIV-1)
[12] = molecular target: HIV-1 Env of pseudovirus Du172.17 (clade C) (HIV-1)
[13] = molecular target: HIV-1 Env of pseudovirus Du422.1 (clade C) (HIV-1)
[14] = molecular target: HIV-1 Env of pseudovirus HIV-16845-2.22 (clade C) (HIV-1)
[15] = molecular target: HIV-1 Env of pseudovirus Q769.d22 (clade A) (HIV-1)
[16] = molecular target: HIV-1 Env of pseudovirus THRO4156.18 (clade B) (HIV-1)
[17] = molecular target: HIV-1 Env of pseudovirus TRJO4551.58 (clade B) (HIV-1)
[18] = molecular target: HIV-1 Env of pseudovirus WITO4160.33 (clade B) (HIV-1)
[19] = molecular target: HIV-1 Env of pseudovirus ZM249M.PL1 (clade C) (HIV-1)

## N49P7.2 (antibody)
[1]
  IC50: 0.085 µg/mL
  IC80: 0.237 µg/mL
  MPI: 100
[2]
  IC50: 0.152 µg/mL
  IC80: 0.784 µg/mL
  MPI: 100
[3]
  IC50: 0.313 µg/mL
  IC80: 1.03 µg/mL
  MPI: 100
[4]
  IC50: 0.162 µg/mL
  IC80: 2.49 µg/mL
  MPI: 95
[5]
  IC50: 0.376 µg/mL
  IC80: 1.24 µg/mL
  MPI: 100
[6]
  IC50: 0.067 µg/mL
  IC80: 0.233 µg/mL
  MPI: 100
[7]
  IC50: 0.166 µg/mL
  IC80: 1 µg/mL
  MPI: 100
[8]
  IC50: > 50 µg/mL
  IC80: > 50 µg/mL
  MPI: 6
[9]
  IC50: 0.332 µg/mL
  IC80: 1.08 µg/mL
  MPI: 100
[10]
  IC50: 0.124 µg/mL
  IC80: 0.576 µg/mL
  MPI: 100
[11]
  IC50: 0.874 µg/mL
  IC80: 3.88 µg/mL
  MPI: 100
[12]
  IC50: 0.29 µg/mL
  IC80: 1.08 µg/mL
  MPI: 100
[13]
  IC50: > 50 µg/mL
  IC80: > 50 µg/mL
  MPI: 22
[14]
  IC50: 3.91 µg/mL
  IC80: 18.2 µg/mL
  MPI: 98
[15]
  IC50: 0.029 µg/mL
  IC80: 0.14 µg/mL
  MPI: 100
[16]
  IC50: 6.29 µg/mL
  IC80: 33.3 µg/mL
  MPI: 94
[17]
  IC50: 0.21 µg/mL
  IC80: 0.673 µg/mL
  MPI: 100
[18]
  IC50: 0.051 µg/mL
  IC80: 0.215 µg/mL
  MPI: 100
[19]
  IC50: 0.073 µg/mL
  IC80: 0.256 µg/mL
  MPI: 100
